Biological target: EPHB1 (UniProt P54762)
Assay: phosphorylation enrichment, bacterial display (enrichment ratio); higher = better substrate or ligand; peptides without Tyr show the background
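Note: 11-residue human phosphosite peptides and single-mutation variants displayed on the E. coli surface, counted by deep sequencing, each peptide's frequency after selection divided by its frequency in the unselected input library; frequency after pTyr selection over input frequency; kinase dosed for 20-30% of maximal phosphorylation in three min.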

Sequence of EPHB1 (P54762 whole entry, looked up): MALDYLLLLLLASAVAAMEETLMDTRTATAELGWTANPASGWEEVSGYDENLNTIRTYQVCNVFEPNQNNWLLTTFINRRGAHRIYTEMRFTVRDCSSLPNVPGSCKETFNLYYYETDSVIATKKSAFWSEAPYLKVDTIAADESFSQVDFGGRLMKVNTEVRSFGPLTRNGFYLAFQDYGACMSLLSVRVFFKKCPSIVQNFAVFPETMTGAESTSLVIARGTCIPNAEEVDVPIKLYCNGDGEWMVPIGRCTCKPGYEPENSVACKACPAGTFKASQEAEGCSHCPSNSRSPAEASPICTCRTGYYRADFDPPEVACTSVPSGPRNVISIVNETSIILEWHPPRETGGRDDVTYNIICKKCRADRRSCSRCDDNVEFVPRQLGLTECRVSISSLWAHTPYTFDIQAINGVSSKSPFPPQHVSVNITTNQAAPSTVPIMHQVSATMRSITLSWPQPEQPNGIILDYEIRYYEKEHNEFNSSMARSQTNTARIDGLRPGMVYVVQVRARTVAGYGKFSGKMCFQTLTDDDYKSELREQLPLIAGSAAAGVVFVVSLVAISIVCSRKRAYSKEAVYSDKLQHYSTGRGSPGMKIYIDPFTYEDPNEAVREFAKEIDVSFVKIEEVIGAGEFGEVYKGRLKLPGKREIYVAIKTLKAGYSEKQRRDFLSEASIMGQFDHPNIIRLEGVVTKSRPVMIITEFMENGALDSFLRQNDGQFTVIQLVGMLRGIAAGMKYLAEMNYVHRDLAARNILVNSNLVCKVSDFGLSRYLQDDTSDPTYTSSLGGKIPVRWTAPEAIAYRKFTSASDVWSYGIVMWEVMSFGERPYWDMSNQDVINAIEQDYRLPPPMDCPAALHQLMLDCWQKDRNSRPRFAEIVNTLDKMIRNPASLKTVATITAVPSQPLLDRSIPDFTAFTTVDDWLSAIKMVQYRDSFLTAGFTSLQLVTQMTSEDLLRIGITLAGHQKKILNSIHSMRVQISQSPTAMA

Row | Sequence | phosphorylation enrichment
1 | QTPVLYAMLDH [MPZ_Y220] | 10.7
2 | VPLATYMRIFK [RPL21_Y30_YF] | 0.406
3 | WIPIQYLIISE [NOG_Y222_P223L] | 0.624
4 | FHIDHYLGKEM [G6PD_Y202_R198H_YF] | 0.438
5 | KVKPIYFRTQG [AR_Y916_H918R] | 0.356
6 | FIPSNYVAEDR [FRK_Y104_YF] | 0.386
7 | IALNSCHSRNC [IFNGR1_Y397_Y397C] | 0.337
8 | GVVVPYEPPEV [TP53_Y220_S215G] | 0.493
9 | TGDRPYVCPFD [YY1_Y383] | 0.474
10 | AFRHGYFDEEM [PLEC_Y2971_R2969H_YF] | 0.498
11 | GLAKEYTDPET [CSNK1G2_Y195_I196T] | 0.494
12 | RMDGKYACSFT [FLNB_Y704_T703K_YF] | 0.882
13 | VDYQPYRKHKY [TEX37_Y28] | 0.314
14 | RSHRSYSCQVM [IGLL1_Y192_R189H] | 0.696
15 | EKQARYEIVVE [CDH5_Y223] | 0.65
16 | QLHRKYCLSPR [HJURP_Y445_E444K] | 0.523
17 | PAKPRYRARQR [KCNJ11_Y26_E23K] | 0.774

Row | Sequence | phosphorylation enrichment
18 | GCRSKYVGLWG [KCNQ1_Y184] | 0.41
19 | KKHIPYKEHKS [CSNK1G1_Y205_R206K] | 1.15
20 | LAEMNYVHQDL [EPHB1_Y740_R743Q] | 1.37
21 | GEFHVYRHLRW [PRKRIP1_Y82_R87W] | 0.499
22 | AEDKPYAELWT [MPI_Y46_M51T] | 0.689
23 | FGSVMYEFVGK [SLC18A1_Y251] | 5.8
24 | FVTSMYNEILM [TRPV1_Y310] | 0.765
25 | FLGRDYLETLM [DUS3L_Y610_YF] | 0.47
26 | VTQEQYELFCE [CBL_Y368_YF] | 0.86
27 | TDKLFYIYTSG [SLC27A4_Y243] | 0.701
28 | LMVFEYMRHGN [NTRK1_Y591_D596N] | 0.797
29 | EEKKKYFDAKI [CASP5_Y103_T106A_YF] | 0.385
30 | AGQEKYSAMRD [HRAS_Y64_E63K] | 0.318
31 | ILDEAYVMAGA [ERBB2_Y772_V777A] | 0.662
32 | SQQTYYRVSNM [ABCD1_Y181] | 1.93
33 | MKALGYFAVVT [OPA1_Y498] | 0.852

Biological target: FGFR1 (UniProt P11362)
Assay: as above

Sequence of FGFR1 (P11362 whole entry, looked up): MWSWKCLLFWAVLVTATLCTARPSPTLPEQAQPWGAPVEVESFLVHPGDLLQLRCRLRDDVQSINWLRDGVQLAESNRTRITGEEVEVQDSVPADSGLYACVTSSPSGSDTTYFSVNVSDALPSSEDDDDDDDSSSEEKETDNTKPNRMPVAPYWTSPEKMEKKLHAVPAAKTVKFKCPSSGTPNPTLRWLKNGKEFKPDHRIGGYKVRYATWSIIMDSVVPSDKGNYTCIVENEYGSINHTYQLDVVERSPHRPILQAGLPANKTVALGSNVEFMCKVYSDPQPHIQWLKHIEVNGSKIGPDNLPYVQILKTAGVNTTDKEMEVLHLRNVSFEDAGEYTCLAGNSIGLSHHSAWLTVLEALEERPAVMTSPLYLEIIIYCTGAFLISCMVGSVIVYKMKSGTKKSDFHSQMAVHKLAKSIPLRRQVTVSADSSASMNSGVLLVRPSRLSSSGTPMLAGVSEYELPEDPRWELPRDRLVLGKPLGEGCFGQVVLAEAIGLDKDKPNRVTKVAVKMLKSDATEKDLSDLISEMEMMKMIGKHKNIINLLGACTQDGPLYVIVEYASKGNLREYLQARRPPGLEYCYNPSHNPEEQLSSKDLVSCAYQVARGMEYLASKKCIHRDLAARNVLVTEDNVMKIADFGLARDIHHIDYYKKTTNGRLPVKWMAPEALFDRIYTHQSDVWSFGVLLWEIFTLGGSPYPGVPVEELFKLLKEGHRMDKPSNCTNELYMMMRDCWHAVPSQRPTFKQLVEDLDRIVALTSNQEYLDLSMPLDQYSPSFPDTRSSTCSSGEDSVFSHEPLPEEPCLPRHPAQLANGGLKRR

Row | Sequence | phosphorylation enrichment
34 | QTPVLYAMLDH [MPZ_Y220] | 3.44
35 | VPLATYMRIFK [RPL21_Y30_YF] | 0.408
36 | WIPIQYLIISE [NOG_Y222_P223L] | 0.58
37 | FHIDHYLGKEM [G6PD_Y202_R198H_YF] | 0.53
38 | KVKPIYFRTQG [AR_Y916_H918R] | 0.475
39 | FIPSNYVAEDR [FRK_Y104_YF] | 0.412
40 | IALNSCHSRNC [IFNGR1_Y397_Y397C] | 0.486
41 | GVVVPYEPPEV [TP53_Y220_S215G] | 0.39
42 | TGDRPYVCPFD [YY1_Y383] | 0.59
43 | AFRHGYFDEEM [PLEC_Y2971_R2969H_YF] | 0.554
44 | GLAKEYTDPET [CSNK1G2_Y195_I196T] | 0.323
45 | RMDGKYACSFT [FLNB_Y704_T703K_YF] | 1.1
46 | VDYQPYRKHKY [TEX37_Y28] | 0.423
47 | RSHRSYSCQVM [IGLL1_Y192_R189H] | 0.637
48 | EKQARYEIVVE [CDH5_Y223] | 0.392
49 | QLHRKYCLSPR [HJURP_Y445_E444K] | 0.815
50 | PAKPRYRARQR [KCNJ11_Y26_E23K] | 0.671

Row | Sequence | phosphorylation enrichment
51 | GCRSKYVGLWG [KCNQ1_Y184] | 0.432
52 | KKHIPYKEHKS [CSNK1G1_Y205_R206K] | 0.942
53 | LAEMNYVHQDL [EPHB1_Y740_R743Q] | 0.581
54 | GEFHVYRHLRW [PRKRIP1_Y82_R87W] | 0.442
55 | AEDKPYAELWT [MPI_Y46_M51T] | 1.01
56 | FGSVMYEFVGK [SLC18A1_Y251] | 1.35
57 | FVTSMYNEILM [TRPV1_Y310] | 0.641
58 | FLGRDYLETLM [DUS3L_Y610_YF] | 0.48
59 | VTQEQYELFCE [CBL_Y368_YF] | 0.543
60 | TDKLFYIYTSG [SLC27A4_Y243] | 0.565
61 | LMVFEYMRHGN [NTRK1_Y591_D596N] | 0.55
62 | EEKKKYFDAKI [CASP5_Y103_T106A_YF] | 0.488
63 | AGQEKYSAMRD [HRAS_Y64_E63K] | 0.324
64 | ILDEAYVMAGA [ERBB2_Y772_V777A] | 0.639
65 | SQQTYYRVSNM [ABCD1_Y181] | 7.77
66 | MKALGYFAVVT [OPA1_Y498] | 0.579

— the supplement of paper PMC10065799, “High-throughput profiling of sequence recognition by tyrosine kinases and SH2 domains using bacterial peptide display” (eLife, 2023)
